Measurements from patent US20250289871A1 (AstraZeneca / MedImmune, published 2025).

Molecular target: SARS-CoV-2 spike RBD (residues 334-526), AviTag and 8×HisTag (SARS-CoV-2, UniProt P0DTC2 334-526)

B1: RQ33 (TM-YTE) (antibody, V domains shown)
VH: QVQLQESGPGLVKPSETLSLTCTVFGGSITSSNHYWVWIRQPPGKGLEWIGSMYYSGSTAYNPSLTNRVTISVDTSKNQFSLKLSSVTAADTAVYYCARQIGPKRPSQVADWFDPWGQGTLVTVSS
VL: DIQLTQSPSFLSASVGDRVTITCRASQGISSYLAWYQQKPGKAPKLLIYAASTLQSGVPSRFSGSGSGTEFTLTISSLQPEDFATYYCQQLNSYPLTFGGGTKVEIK
- Kd: 3.65 nM

B2: RQ40 (TM-YTE) (antibody, V domains shown)
VH: EVQLVESGAEVKKPGSSVKVSCKASGGTFSSYAINWVRQAPGQGLEWMGGIIPIFRTPHYAQKFQGRVTITADESTGTAYMELSSLRSEDTAVYYCASPSCGGDCPQYLKSSKLDWYFDLWGRGTLVTVSS
VL: VIWMTQSPGTLSLSPGERATLSCRASQSVSSTYLAWYQQKPGQAPRLLIYGASSRATGIPDRFSGSGSGTDFTLTISRLEPEDFAVYYCQHYGSSPLTFGQGTRLEIK
- Kd: < 0.001 nM

B3: RQ43 (TM-YTE) (antibody, V domains shown)
VH: EVQLLETGGGLVQPGRSLRLSCAASGFPFDDYAIHWVRLAPGKGLEWVSSISWDSGSIGYADSVKGRFTISRDNAKNSLYLQMNSLRAEDTALYYCAKGAFPGYSSGWYYGLDVWGQGATVTVSS
VL: QSVVTQPPSASGSLGQSVTISCTGTSSDVGGYNYVSWYQQHPGKAPKLMIFEVSKRPSGVPDRFSGSKSGNTASLTVSGLQAEDEADYYCSSYAGNKGVFGGGTKLTVL
- Kd: < 0.001 nM
